In patent publication US20260265409A1 (NANJING LEADS BIOLABS, published 2026):

T1: human FAP protein expressed on 293T cells (293T-human FAP) (human, UniProt Q12884 1-760)
T1 sequence: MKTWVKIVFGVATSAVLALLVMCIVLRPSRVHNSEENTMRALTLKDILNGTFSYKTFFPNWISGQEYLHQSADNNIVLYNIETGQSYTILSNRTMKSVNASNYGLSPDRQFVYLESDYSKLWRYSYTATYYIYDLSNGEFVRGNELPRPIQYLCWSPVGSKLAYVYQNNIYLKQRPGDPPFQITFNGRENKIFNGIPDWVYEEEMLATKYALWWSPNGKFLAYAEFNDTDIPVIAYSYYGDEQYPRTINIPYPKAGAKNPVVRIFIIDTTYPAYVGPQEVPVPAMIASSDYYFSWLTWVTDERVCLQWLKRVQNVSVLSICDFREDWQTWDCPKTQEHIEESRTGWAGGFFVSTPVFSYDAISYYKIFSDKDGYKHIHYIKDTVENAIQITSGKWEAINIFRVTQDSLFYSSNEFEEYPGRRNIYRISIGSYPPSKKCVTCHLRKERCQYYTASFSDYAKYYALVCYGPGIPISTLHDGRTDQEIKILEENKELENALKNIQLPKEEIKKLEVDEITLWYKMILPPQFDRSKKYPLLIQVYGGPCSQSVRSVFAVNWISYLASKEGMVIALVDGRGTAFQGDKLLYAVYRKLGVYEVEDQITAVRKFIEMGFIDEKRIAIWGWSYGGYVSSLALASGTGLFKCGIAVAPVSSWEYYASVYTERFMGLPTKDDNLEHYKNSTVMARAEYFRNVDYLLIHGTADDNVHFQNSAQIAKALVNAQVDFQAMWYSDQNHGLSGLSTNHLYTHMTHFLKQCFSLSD

T2: cynomolgus FAP protein expressed on 293T cells (293T-cynomolgus FAP) (cynomolgus monkey, UniProt Q12884 1-760 (human entry))
T2 sequence: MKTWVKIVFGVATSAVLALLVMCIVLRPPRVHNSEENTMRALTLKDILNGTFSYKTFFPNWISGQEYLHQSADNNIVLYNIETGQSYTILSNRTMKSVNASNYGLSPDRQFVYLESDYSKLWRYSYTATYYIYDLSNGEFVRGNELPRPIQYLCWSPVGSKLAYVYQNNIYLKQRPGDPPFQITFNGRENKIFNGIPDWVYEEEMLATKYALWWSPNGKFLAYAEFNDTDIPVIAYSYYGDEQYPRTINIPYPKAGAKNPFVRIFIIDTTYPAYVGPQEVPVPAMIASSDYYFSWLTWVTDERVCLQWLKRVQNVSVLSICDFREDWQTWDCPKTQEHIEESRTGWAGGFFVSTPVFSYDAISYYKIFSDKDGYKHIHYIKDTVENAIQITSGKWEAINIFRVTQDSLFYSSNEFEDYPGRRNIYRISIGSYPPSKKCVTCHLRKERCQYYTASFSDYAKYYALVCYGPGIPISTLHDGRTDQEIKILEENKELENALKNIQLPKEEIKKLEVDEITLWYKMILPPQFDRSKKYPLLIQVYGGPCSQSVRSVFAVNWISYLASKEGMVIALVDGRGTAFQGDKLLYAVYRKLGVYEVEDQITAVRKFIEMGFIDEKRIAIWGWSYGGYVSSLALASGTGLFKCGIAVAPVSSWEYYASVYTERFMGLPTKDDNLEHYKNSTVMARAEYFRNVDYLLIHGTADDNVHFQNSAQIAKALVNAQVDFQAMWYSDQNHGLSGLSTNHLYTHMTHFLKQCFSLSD

T3: recombinant human FAP protein (Sino Biological, Cat #10464-H07H) (human, UniProt Q12884 26-760)
T3 construct: Bought protein
T3 sequence: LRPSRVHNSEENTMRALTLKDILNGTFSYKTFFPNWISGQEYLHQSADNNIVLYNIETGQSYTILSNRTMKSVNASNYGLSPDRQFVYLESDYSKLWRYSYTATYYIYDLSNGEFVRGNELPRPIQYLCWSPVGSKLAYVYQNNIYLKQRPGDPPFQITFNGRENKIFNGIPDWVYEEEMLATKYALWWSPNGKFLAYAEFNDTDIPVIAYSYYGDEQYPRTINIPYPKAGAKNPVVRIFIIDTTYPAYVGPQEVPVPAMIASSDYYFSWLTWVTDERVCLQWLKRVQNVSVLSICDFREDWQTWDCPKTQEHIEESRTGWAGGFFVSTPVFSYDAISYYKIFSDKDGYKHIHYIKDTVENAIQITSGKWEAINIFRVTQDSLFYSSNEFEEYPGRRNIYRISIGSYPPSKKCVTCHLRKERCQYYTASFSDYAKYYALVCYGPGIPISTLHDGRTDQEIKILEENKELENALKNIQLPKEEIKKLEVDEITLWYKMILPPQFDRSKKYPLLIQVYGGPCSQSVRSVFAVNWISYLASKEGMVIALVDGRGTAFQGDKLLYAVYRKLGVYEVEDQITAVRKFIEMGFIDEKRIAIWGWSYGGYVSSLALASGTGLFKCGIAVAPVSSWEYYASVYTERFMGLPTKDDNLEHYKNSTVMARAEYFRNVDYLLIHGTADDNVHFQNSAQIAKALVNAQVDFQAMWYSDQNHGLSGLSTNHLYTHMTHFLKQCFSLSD


Columns and labels:
[1] = biological target: T1, human FAP protein expressed on 293T …; assay: flow cytometry on 293T-human FAP cells, PE goat anti-human IgG Fc secondary antibody
Protocol: (§1) The cells were washed twice with PBS, and then fluorescent secondary antibody R-PE-conjugated AffiniPure Goat Anti-Human IgG, Fcγ Fragment Specific (Jackson Immuno Research, Cat #109-116-098) was added. The cells were incubated at 4° C. for 30 min. The cells were washed twice with PBS and then resuspended, and finally, fluorescence signals were detected using the […] (BD Bioscience) flow cytometer.

[2] = biological target: T4, human DPP4 protein expressed on 293T cells (293T-DPP4) (human, UniProt P27487 1-766); assay: flow cytometry on 293T-DPP4 cells, PE goat anti-human IgG Fc secondary antibody
T4 construct: also called CD26
T4 sequence (P27487 whole entry): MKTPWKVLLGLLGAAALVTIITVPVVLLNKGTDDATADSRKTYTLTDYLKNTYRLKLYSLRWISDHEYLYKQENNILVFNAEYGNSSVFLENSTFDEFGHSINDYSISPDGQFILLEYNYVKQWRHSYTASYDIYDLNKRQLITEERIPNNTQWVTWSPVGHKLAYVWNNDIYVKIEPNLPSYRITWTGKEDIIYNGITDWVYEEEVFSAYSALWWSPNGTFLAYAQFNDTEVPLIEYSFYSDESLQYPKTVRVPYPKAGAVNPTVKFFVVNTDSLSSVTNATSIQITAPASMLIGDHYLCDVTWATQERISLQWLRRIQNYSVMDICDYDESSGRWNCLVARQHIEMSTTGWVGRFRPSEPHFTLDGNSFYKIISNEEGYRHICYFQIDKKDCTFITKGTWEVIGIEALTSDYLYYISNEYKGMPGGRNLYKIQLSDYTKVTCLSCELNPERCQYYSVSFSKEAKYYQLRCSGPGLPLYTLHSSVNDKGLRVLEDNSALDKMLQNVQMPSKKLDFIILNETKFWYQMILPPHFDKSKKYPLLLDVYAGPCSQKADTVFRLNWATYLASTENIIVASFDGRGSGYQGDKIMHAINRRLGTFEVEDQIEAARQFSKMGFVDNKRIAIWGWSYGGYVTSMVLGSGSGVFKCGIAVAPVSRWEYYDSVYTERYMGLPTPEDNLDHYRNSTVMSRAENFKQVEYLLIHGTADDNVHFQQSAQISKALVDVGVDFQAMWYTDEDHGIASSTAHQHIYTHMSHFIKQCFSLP
Protocol: as §1, with “cytometer. […] The antibodies were diluted at 1:100 with PBS, and the cell pellet was resuspended and incubated at 4° C. for 30 min. The cells were washed twice with PBS and then resuspended in 100 μL of PBS, and finally, fluorescence signals were detected using the BD Accuri C5 (BD Bioscience) flow cytometer.” for “cytometer.”

[3] = biological target: T2, cynomolgus FAP protein expressed on …; assay: flow cytometry on 293T-cynomolgus FAP cells, PE goat anti-human IgG Fc secondary antibody
Protocol: as §1

[4] = biological target: T3, recombinant human FAP protein (Sino …); assay: ELISA, human FAP protein coated on the plate, detection with HRP goat anti-human IgG F(ab')2; unit from the axis 'Antibody Conc[nM]' and paragraph 217
Protocol: Human FAP protein (Sino Biological, Cat #10464-H07H) was immobilized on a 96-well plate by incubation overnight in a PBS buffer at 4° C. The plate was then blocked by incubation with a PBS containing 1% of BSA for 1 h at 37° C. After blocking, the plate was washed thrice with PBST (PBS containing 0.05% of Tween 20). […] After binding, the plate was washed thrice with PBST, incubated at 37° C. for 1 h with peroxidase-labeled goat anti-human IgG, F(ab′)₂ fragment specific (Jackson Immuno Research, Cat #109-035-097) diluted at 1/15,000 in the binding buffer, washed again, subjected to a chromogenic reaction with TMB, and quenched with 1 M H₂SO₄.

[5] = biological target: T2, cynomolgus FAP protein expressed on …; assay: flow cytometry on 293T-cynomolgus FAP cells (panel title on the sheet), PE goat anti-human IgG Fc secondary antibody
Protocol: as §1

[6] = biological target: T1, human FAP protein expressed on 293T …; assay: flow cytometry on 293T-human FAP cells (panel title on the sheet), PE goat anti-human IgG Fc secondary antibody
Protocol: as §1

| Binder | EC50 (read off the curve) [1] | binding result [2] | EC50 (read off the curve) [3] | EC50 [4] | EC50 (read off the curve) [5] | EC50 (read off the curve) [6] |
| --- | --- | --- | --- | --- | --- | --- |
| sibrotuzumab (humanized reference antibody) (antibody, human IgG1, kappa, V domains shown) VH: QVQLVQSGAEVKKPGASVKVSCKTSRYTFTEYTIHWVRQAPGQRLEWIGGINPNNGIPNYNQKFKGRVTITVDTSASTAYMELSSLRSEDTAVYYCARRRIAYGYDEGHAMDYWGQGTLVTVSS VL: DIVMTQSPDSLAVSLGERATINCKSSQSLLYSRNQKNYLAWYQQKPGQPPKLLIFWASTRESGVPDRFSGSGFGTDFTLTISSLQAEDVAVYYCQQYFSYPLTFGQGTKVEIKR | ~2 nM | no binding (tested: 10 µg/mL) | ~1 nM | 0.0863 nM |  |  |
| humanized anti-FAP antibody huF19-LG (antibody, human IgG1, kappa, V domains shown, Humanized from murine F19) VH: QVQLVQSGAEVKKPGASVKVSCKASGYTFTEYTIHWVRQATGQGLEWIGGINPNNGIPNYNQKFKGRATMTVGTSISTAYMELSSLRSEDTAVYFCARRRIAYGYDEGHAMDYWGQGTLVTVSS VL: DIQMTQSPSSLSASVGDRVTITCKSSQSLLYSRNQKNYLAWFQQKPGKAPKLLIFWASTRESGVPSRFTGSGFGTDFTLTISSLQPEDFATYYCQQYFSYPLTFGQGTKLEIKR | ~2 nM | no binding (tested: 10 µg/mL) | 1 to 2 nM | 0.0926 nM | ~4 nM | ~3 nM |
| mutant humanized FAP antibody huF19-LG-NGR (antibody, human IgG1, kappa, V domains shown, huF19-LG with G56R (Kabat) in HCDR2; also called optimized FAP antibody; mutant antibody) VH: QVQLVQSGAEVKKPGASVKVSCKASGYTFTEYTIHWVRQATGQGLEWIGGINPNNRIPNYNQKFKGRATMTVGTSISTAYMELSSLRSEDTAVYFCARRRIAYGYDEGHAMDYWGQGTLVTVSS VL: DIQMTQSPSSLSASVGDRVTITCKSSQSLLYSRNQKNYLAWFQQKPGKAPKLLIFWASTRESGVPSRFTGSGFGTDFTLTISSLQPEDFATYYCQQYFSYPLTFGQGTKLEIKR |  |  |  |  | ~3 nM | ~2 nM |
